Laboratory results: the supplement of paper PMC9112550, “Optimization of the antimicrobial peptide Bac7 by deep mutational scanning” (BMC Biology, 2022)

Test system: Escherichia coli TOP10
Assay: shrunken log2 fold change of peptide-encoding DNA abundance (4.5 h post-induction vs induction); higher = less antimicrobial activity (less host growth inhibition)
Settings: time post-induction: 4.5 h; library: site-saturation at positions 5, 18, 19, 20
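Note: peptides expressed intracellularly from a pBAD plasmid library in pooled LB shake-flask culture, induced with 0.3% L-arabinose, DNA abundance read by NGS, three biological replicates, DESeq2 with apeglm shrinkage.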

Row | Sequence | shrunken log2 fold change
1 | RRIRQRPPRLPRPRPRPISYPRP | 0.0146
2 | RRIRTRPPRLPRPRPRPYLGPRP | -0.00172
3 | RRIRVRPPRLPRPRPRPKCEPRP | 0.0936
4 | RRIRMRPPRLPRPRPRPQNPPRP | 0.26
5 | RRIRIRPPRLPRPRPRPVNDPRP | -0.00973
6 | RRIRDRPPRLPRPRPRPPTDPRP | 0.564
7 | RRIRMRPPRLPRPRPRPQELPRP | 0.0211
8 | RRIRPRPPRLPRPRPRPKESPRP | 0.13
9 | RRIRLRPPRLPRPRPRPQWGPRP | 0.00618
10 | RRIRARPPRLPRPRPRPGSIPRP | -0.283
11 | RRIRHRPPRLPRPRPRPKRYPRP | -0.0093
12 | RRIRRRPPRLPRPRPRPKNRPRP | -0.0177
13 | RRIRPRPPRLPRPRPRPWVKPRP | -0.0754
14 | RRIRHRPPRLPRPRPRPAIHPRP | -0.303
15 | RRIRGRPPRLPRPRPRPLGIPRP | 0.178
16 | RRIRSRPPRLPRPRPRPGTNPRP | -0.188
17 | RRIRLRPPRLPRPRPRPAWHPRP | 0.183
18 | RRIRHRPPRLPRPRPRPDDCPRP | -0.00674
19 | RRIRKRPPRLPRPRPRPCHCPRP | -0.241
20 | RRIRPRPPRLPRPRPRPRTDPRP | 0.165
21 | RRIRYRPPRLPRPRPRPNNNPRP | -0.989
22 | RRIRPRPPRLPRPRPRPDNCPRP | -0.197
23 | RRIRKRPPRLPRPRPRPMPKPRP | 0.421
24 | RRIRRRPPRLPRPRPRPANIPRP | 0.256
25 | RRIRVRPPRLPRPRPRPKLSPRP | -0.0136

Row | Sequence | shrunken log2 fold change
26 | RRIRERPPRLPRPRPRPHRYPRP | 0.0893
27 | RRIRCRPPRLPRPRPRPPRKPRP | 1.01
28 | RRIRGRPPRLPRPRPRPMCIPRP | 0.166
29 | RRIRSRPPRLPRPRPRPSQEPRP | -0.26
30 | RRIRDRPPRLPRPRPRPGIWPRP | 0.252
31 | RRIRTRPPRLPRPRPRPKGCPRP | 0.00952
32 | RRIRGRPPRLPRPRPRPSCWPRP | 0.413
33 | RRIRYRPPRLPRPRPRPCPAPRP | -0.772
34 | RRIRTRPPRLPRPRPRPNCTPRP | -0.485
35 | RRIRARPPRLPRPRPRPDCCPRP | 0.172
36 | RRIRFRPPRLPRPRPRPVVPPRP | -0.196
37 | RRIRERPPRLPRPRPRPDCHPRP | -0.011
38 | RRIRIRPPRLPRPRPRPMPCPRP | 0.00854
39 | RRIRIRPPRLPRPRPRPPFPPRP | 0.141
40 | RRIRVRPPRLPRPRPRPASPPRP | 0.102
41 | RRIRCRPPRLPRPRPRPPIQPRP | 0.369
42 | RRIRTRPPRLPRPRPRPAAMPRP | 0.154
43 | RRIRRRPPRLPRPRPRPFRHPRP | -0.212
44 | RRIRGRPPRLPRPRPRPDQEPRP | 1.05
45 | RRIRPRPPRLPRPRPRPGCQPRP | -0.0622
46 | RRIRTRPPRLPRPRPRPGKSPRP | -0.402
47 | RRIRARPPRLPRPRPRPYLDPRP | 0.118
48 | RRIRPRPPRLPRPRPRPGLVPRP | 0.287
49 | RRIRFRPPRLPRPRPRPDPAPRP | 0.266
50 | RRIRVRPPRLPRPRPRPQMKPRP | -0.0794

Row | Sequence | shrunken log2 fold change
51 | RRIRTRPPRLPRPRPRPFFHPRP | -0.158
52 | RRIRPRPPRLPRPRPRPCKEPRP | -0.0274
53 | RRIRDRPPRLPRPRPRPTYDPRP | -0.208
54 | RRIRNRPPRLPRPRPRPCHVPRP | 0.0112
55 | RRIRMRPPRLPRPRPRPRLHPRP | 0.721
56 | RRIRPRPPRLPRPRPRPMGAPRP | 0.117
57 | RRIRPRPPRLPRPRPRPCVPPRP | -0.134
58 | RRIRYRPPRLPRPRPRPADDPRP | -0.0179
59 | RRIRHRPPRLPRPRPRPRAAPRP | 0.368
60 | RRIRMRPPRLPRPRPRPPAHPRP | 0.721
61 | RRIRCRPPRLPRPRPRPMRMPRP | 0.22
62 | RRIRFRPPRLPRPRPRPLDTPRP | 0.0445
63 | RRIRSRPPRLPRPRPRPLEEPRP | 0.411
64 | RRIRPRPPRLPRPRPRPQFLPRP | -0.164
65 | RRIRVRPPRLPRPRPRPMSVPRP | 0.0581
66 | RRIRHRPPRLPRPRPRPWGRPRP | 0.0574
67 | RRIRIRPPRLPRPRPRPRLMPRP | -0.0272
68 | RRIRGRPPRLPRPRPRPLNAPRP | 0.908
69 | RRIRKRPPRLPRPRPRPRHRPRP | 0.264
70 | RRIRHRPPRLPRPRPRPIPDPRP | -0.275
71 | RRIRLRPPRLPRPRPRPLYYPRP | -0.274
72 | RRIRCRPPRLPRPRPRPWFFPRP | -0.24
73 | RRIRKRPPRLPRPRPRPRFWPRP | 1.42
74 | RRIRFRPPRLPRPRPRPGPMPRP | 0.104
75 | RRIRERPPRLPRPRPRPTRKPRP | 0.0197

Row | Sequence | shrunken log2 fold change
76 | RRIRERPPRLPRPRPRPRKHPRP | 0.0582
77 | RRIRFRPPRLPRPRPRPRTHPRP | 0.114
78 | RRIRFRPPRLPRPRPRPQQNPRP | 0.383
79 | RRIRHRPPRLPRPRPRPSRNPRP | -0.134
80 | RRIRARPPRLPRPRPRPILMPRP | 0.143
81 | RRIRDRPPRLPRPRPRPTCAPRP | 0.927
82 | RRIRERPPRLPRPRPRPLTAPRP | -0.286
83 | RRIRRRPPRLPRPRPRPSASPRP | 0.101
84 | RRIRWRPPRLPRPRPRPHWFPRP | 0.0392
85 | RRIRERPPRLPRPRPRPWNQPRP | -0.124
86 | RRIRFRPPRLPRPRPRPMAYPRP | -0.0672
87 | RRIRIRPPRLPRPRPRPGEMPRP | -0.00568
88 | RRIRMRPPRLPRPRPRPEDEPRP | 2.06
89 | RRIRWRPPRLPRPRPRPSAQPRP | 0.422
90 | RRIRWRPPRLPRPRPRPFWDPRP | 0.00494
91 | RRIRWRPPRLPRPRPRPVHCPRP | -0.162
92 | RRIRRRPPRLPRPRPRPYVPPRP | -0.241
93 | RRIRIRPPRLPRPRPRPHMFPRP | -1
94 | RRIRPRPPRLPRPRPRPWFAPRP | -0.116
95 | RRIRHRPPRLPRPRPRPVSDPRP | 0.132
96 | RRIRKRPPRLPRPRPRPLFAPRP | 0.594
97 | RRIRQRPPRLPRPRPRPTNTPRP | -0.216
98 | RRIRNRPPRLPRPRPRPPCKPRP | 0.0896
99 | RRIRYRPPRLPRPRPRPPLRPRP | -0.151
100 | RRIRQRPPRLPRPRPRPGELPRP | -0.091

Row | Sequence | shrunken log2 fold change
101 | RRIRDRPPRLPRPRPRPWDAPRP | 0.207
102 | RRIRPRPPRLPRPRPRPHSIPRP | -0.418
103 | RRIRDRPPRLPRPRPRPVFLPRP | -0.208
104 | RRIRHRPPRLPRPRPRPVFCPRP | -0.138
105 | RRIRYRPPRLPRPRPRPKLIPRP | -0.775
106 | RRIRSRPPRLPRPRPRPLFTPRP | -0.0175
107 | RRIRYRPPRLPRPRPRPCQLPRP | -0.00957
108 | RRIRERPPRLPRPRPRPTFSPRP | -0.216
109 | RRIRHRPPRLPRPRPRPVFSPRP | 0.0833
110 | RRIRSRPPRLPRPRPRPLFCPRP | -0.146
111 | RRIRPRPPRLPRPRPRPTVKPRP | -0.00591
112 | RRIRRRPPRLPRPRPRPKPTPRP | 0.426
113 | RRIRRRPPRLPRPRPRPAADPRP | 0.594
114 | RRIRYRPPRLPRPRPRPTMLPRP | -0.54
115 | RRIRQRPPRLPRPRPRPIKNPRP | -0.186
116 | RRIRWRPPRLPRPRPRPDELPRP | 0.402
117 | RRIRWRPPRLPRPRPRPTEVPRP | 0.0181
118 | RRIRDRPPRLPRPRPRPVQWPRP | 0.0426
119 | RRIRFRPPRLPRPRPRPHTGPRP | -0.411
120 | RRIRNRPPRLPRPRPRPHYPPRP | -0.465
121 | RRIRARPPRLPRPRPRPQPEPRP | 1.04
122 | RRIRWRPPRLPRPRPRPYDIPRP | -0.00748
123 | RRIRHRPPRLPRPRPRPDDMPRP | -0.11
124 | RRIRARPPRLPRPRPRPSRYPRP | 0.0768
125 | RRIRMRPPRLPRPRPRPFCSPRP | 0.0534
